The source of these data is patent US20220356235A1 (STICHTING SANQUIN BLOEDVOORZIENING, published 2022).

B1: human factor H, full length (other, UniProt P08603 19-1231, looked up)
chain: EDCNELPPRRNTEILTGSWSDQTYPEGTQAIYKCRPGYRSLGNVIMVCRKGEWVALNPLRKCQKRPCGHPGDTPFGTFTLTGGNVFEYGVKAVYTCNEGYQLLGEINYRECDTDGWTNDIPICEVVKCLPVTAPENGKIVSSAMEPDREYHFGQAVRFVCNSGYKIEGDEEMHCSDDGFWSKEKPKCVEISCKSPDVINGSPISQKIIYKENERFQYKCNMGYEYSERGDAVCTESGWRPLPSCEEKSCDNPYIPNGDYSPLRIKHRTGDEITYQCRNGFYPATRGNTAKCTSTGWIPAPRCTLKPCDYPDIKHGGLYHENMRRPYFPVAVGKYYSYYCDEHFETPSGSYWDHIHCTQDGWSPAVPCLRKCYFPYLENGYNQNYGRKFVQGKSIDVACHPGYALPKAQTTVTCMENGWSPTPRCIRVKTCSKSSIDIENGFISESQYTYALKEKAKYQCKLGYVTADGETSGSITCGKDGWSAQPTCIKSCDIPVFMNARTKNDFTWFKLNDTLDYECHDGYESNTGSTTGSIVCGYNGWSDLPICYERECELPKIDVHLVPDRKKDQYKVGEVLKFSCKPGFTIVGPNSVQCYHFGLSPDLPICKEQVQSCGPPPELLNGNVKEKTKEEYGHSEVVEYYCNPRFLMKGPNKIQCVDGEWTTLPVCIVEESTCGDIPELEHGWAQLSSPPYYYGDSVEFNCSESFTMIGHRSITCIHGVWTQLPQCVAIDKLKKCKSSNLIILEEHLKNKKEFDHNSNIRYRCRGKEGWIHTVCINGRWDPEVNCSMAQIQLCPPPPQIPNSHNMTTTLNYRDGEKVSVLCQENYLIQEGEEITCKDGRWQSIPLCVEKIPCSQPPQIEHGTINSSRSSQESYAHGTKLSYTCEGGFRISEENETTCYMGKWSSPPQCEGLPCKSPPEISHGVVAHMSDSYQYGEEVTYKCFEGFGIDGPAIAKCLGEKWSHPPSCIKTDCLSLPSFENAIPMGEKKDVYKAGEQVTYTCATYYKMDGASNVTCINSRWTGRPTCRDTSCVNPPTVQNAYIVSRQMSKYPSGERVRYQCRSPYEMFGDEEVMCLNGNWTEPPQCKDSTGKCGPPPPIDNGDITSFPLSVYAPASSVEYQCQNLYQLEGNKRITCRNGQWSEPPKCLHPCVISREIMENYNIALRWTAKQKLYSRTGESVEFVCKRGYRLSSRSHTLRTTCWDGKLEYPTCAKR
notes: mature; In the serum assays (C3b deposition, hemolysis) the FH is that of normal human serum; also called FH; full length FH
B2: FHR-1.14C4 (antibody, V domains shown)
VH: EVQLQQSGPELEKPGASVKISCKASGYSFTGYNMHWVKQSNGTSLEWIGKIDPYYGDTSYNQRFKGKATLTVDKSSSTAYMQLKSLTSEDSAVYYCARAFYRDYALDYWGRGTSVTVSS
VL: DIVMTQSPSSLTVTAGEKVTMSCKSSQSLFNSGNQKNYLTWYQQKPGQPPKLLIYWASTRESGVPDRFTGSGSGTDFTLTISSVQAEDLAVYYCQNDYSYPLTFGAGTKLELK
notes: Mouse monoclonal from a hybridoma, raised against recombinant human FHR-1
B3: anti-FHR-1.3B4 (antibody, V domains shown)
VH: QVQLRQSGPGLVQPSQSLSITCTVSGFSLTNYGVYWVRQSPGKGLEWLGVIWSGGTTDYSAAFISRLSISKDNSKSQVFFKMNSLQADDTAIYYCARNFGNYAMDYWGQGTSVTVSS
VL: QIVLSQSPTILSASPGEKVTMTCRASSSVTYMHWYQQKPGSSPKPWIYATSNLASGVPARFSGSGSGTSYSLTISRVEAEDAATYYCQQRSSSNPLTFGAGTKLELK
notes: Mouse monoclonal from a hybridoma, raised against recombinant human FHR-1; also called aFHR-1 3B4
B4: anti-FH.07 (antibody, V domains shown)
VH: QVQLQQSGPGLVQPSQSLSITCTVSDFSLARYGVHWIRQSPGKGLEWLGVIWSGGTADYNAAFISRLNINKDNSKSQVFFKMNSLQANDTAIYYCARNFGNYAVDYWGQGTS
VL: QIVLSQSPTFLSASPGEKVTVTCRASSSVKYMHWYQQKPGASPKPWIFATSNLASGVPARFSGSGSGTSYSLTISRVEAEDAATYYCQQWSIIPPTFGNGTKLELK
B5: anti-FHR-1.11E1 (antibody, V domains shown)
VH: QVQLKQSGPGLVQPSQSLSITCTVSGFSLTNYGVHWVRQPPGKGLEWLGVIWSGGNTDYNAAFISRLSISKDNSKSQVFFKMNSLQADDTAIYYCAKNGDYGYTMDYWGQGTSVTVSS
VL: DVVMTQTPLSLPVSLGDQASISCRSSQSLVHSNGNTYLHWYLQKPGQSPKLLIYKLSNRFSGVPDRFSGSGSGTDFTLKISRVEAEDLGVYFCSQSTHVPFTFGSGTKLEIK
notes: as for B2

In one assay the target is T1, C3b (UniProt P01024 23-667; P01024 749-1663, limits assumed).
T1 construct: C3b has two chains (beta and alpha') derived from C3; also called purified C3b (Complement Technologies)
T1 sequence (P01024 23-667 limits assumed, chain 1 of 2): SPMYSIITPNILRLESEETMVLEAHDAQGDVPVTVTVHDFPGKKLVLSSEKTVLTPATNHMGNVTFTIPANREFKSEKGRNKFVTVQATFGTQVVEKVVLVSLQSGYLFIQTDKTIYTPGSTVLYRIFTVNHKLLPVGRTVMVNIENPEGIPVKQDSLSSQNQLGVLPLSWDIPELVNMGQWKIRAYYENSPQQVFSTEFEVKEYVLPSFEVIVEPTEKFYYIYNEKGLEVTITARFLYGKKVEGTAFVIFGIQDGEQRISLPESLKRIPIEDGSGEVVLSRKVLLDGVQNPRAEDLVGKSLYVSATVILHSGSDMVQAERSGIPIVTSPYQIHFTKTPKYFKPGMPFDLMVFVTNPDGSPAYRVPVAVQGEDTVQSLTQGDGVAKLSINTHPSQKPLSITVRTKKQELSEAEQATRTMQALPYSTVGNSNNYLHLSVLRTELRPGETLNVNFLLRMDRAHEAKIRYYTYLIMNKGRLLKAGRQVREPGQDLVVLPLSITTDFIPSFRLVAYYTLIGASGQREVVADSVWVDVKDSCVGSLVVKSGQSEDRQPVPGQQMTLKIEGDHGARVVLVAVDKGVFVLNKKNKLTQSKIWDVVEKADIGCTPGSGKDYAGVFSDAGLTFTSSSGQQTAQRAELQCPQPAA
T1 sequence (P01024 749-1663 limits assumed, chain 2 of 2): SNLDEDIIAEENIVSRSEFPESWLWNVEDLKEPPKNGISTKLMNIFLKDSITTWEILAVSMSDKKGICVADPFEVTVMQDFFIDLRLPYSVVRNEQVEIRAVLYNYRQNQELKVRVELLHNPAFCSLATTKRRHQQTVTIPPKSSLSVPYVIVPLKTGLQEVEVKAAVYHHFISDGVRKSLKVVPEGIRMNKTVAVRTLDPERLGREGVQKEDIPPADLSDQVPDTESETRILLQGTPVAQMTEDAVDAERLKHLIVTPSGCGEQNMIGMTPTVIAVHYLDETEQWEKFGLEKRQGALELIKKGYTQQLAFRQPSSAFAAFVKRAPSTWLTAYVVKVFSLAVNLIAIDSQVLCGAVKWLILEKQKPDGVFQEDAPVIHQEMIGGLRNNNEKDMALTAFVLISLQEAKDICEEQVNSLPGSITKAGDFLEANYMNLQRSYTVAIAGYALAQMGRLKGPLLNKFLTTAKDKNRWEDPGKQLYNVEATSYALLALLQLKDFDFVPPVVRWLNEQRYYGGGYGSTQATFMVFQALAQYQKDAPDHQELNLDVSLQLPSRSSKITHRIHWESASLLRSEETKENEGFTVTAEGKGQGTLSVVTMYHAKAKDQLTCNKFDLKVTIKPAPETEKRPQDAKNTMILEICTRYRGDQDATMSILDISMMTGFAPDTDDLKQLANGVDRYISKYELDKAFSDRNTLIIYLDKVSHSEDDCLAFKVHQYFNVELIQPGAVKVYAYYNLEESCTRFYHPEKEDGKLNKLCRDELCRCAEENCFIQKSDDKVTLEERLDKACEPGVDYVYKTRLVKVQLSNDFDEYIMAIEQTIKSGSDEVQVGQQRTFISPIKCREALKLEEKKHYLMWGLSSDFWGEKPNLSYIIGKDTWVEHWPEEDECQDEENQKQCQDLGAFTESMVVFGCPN
Briefly: SPR (Biacore T200), C3b amine-coupled to CM5 chip, FH alone injected (10-0.01953 µM), 37 °C, equilibrium analysis; FH alone, no Fab′. Here is the method:
Binding of FH to C3b in the presence of the anti-FH moAbs was determined by surface plasmon resonance using a Biacore T200 instrument (GE Healthcare, Little Chalfont, UK). Purified C3b (Complement Technologies) was immobilized onto a flow cell of a CM5 Biacore Sensor Chip (GE Healthcare) using standard amine coupling. The remaining flow cell was used as reference surface and prepared by performing a coupling reaction without the addition of any protein. A response of 2000 response units (RUs) was obtained after coupling with C3b. SPR experiments were performed at 37° C. using a flow rate of 10 μl/min and in phosphate buffered saline pH 7.4 (PBS, Orphi Farma) supplemented with 0.01% (w/v) Tween-20 (Merck) (PBS-T).
To determine the effect of the antibodies without interference of possible cross-linking via the moAb, recombinantly produced Fab′ fragments of the moAbs were used. Fab′ fragments were mixed with plasma purified FH (pdFH). […] Each Fab′ fragment was also injected without addition of FH to determine any interactions of the Fab′ fragments with the surfaces. The pdFH injection was followed by a dissociation of 60 seconds and surface was regenerated between each cycle by a single injection of 1 M NaCl (Merck).
Data was analyzed using Scrubber 2 (Biologic Software) affinities were determined by equilibrium analysis.
In general terms: SPR reads the build-up and loss of mass on a sensor chip optically.

For assay [1], the target named is T2, recombinant human FH fragment CCP 15-18 (human, UniProt P08603 868-1104).
T2 construct: domain: CCP 15-18
T2 sequence (looked up): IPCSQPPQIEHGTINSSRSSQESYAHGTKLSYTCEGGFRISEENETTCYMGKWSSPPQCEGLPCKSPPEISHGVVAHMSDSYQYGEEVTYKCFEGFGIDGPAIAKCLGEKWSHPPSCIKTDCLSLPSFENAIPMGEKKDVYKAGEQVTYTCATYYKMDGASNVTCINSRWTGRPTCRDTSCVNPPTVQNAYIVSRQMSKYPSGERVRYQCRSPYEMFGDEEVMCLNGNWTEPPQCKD
The experiment in a line: competition ELISA: mAb captured on RM-19 coated plate, FH-bt mixed with 100-fold excess of unlabelled CCP 15-18. On the procedure: (§1) The location of the epitope of anti-FHR-1 mAbs was determined using recombinant human FH fragments composed of multiple CCP domains (15-18, 15-19, 18-20 or 19-20). In short, anti-FHR-1 mAbs were captured on a RM-19 coated microtiterplate to assure optimal binding conformation. Next, biotinylated FH, mixed with a 100-fold higher concentration of the indicated unlabeled recombinant FH-fragments, was incubated on the plate for 1 hour. Binding of biotinylated FH was determined by incubation with 0.01% (v/v) streptavidin conjugated with poly-HRP, in HPE for 30 min. The ELISA was further developed as described above. To determine whether the anti-FHR-1 mAbs competed with anti-FH.07 for the binding of FH, a similar set-up was used. In short, mAbs were directly coated to the plate and binding of biotinylated FH (FH-bt) in the absence or presence of a 10-fold higher concentration of indicated mAbs was assessed by ELISA as described above.

Assay [2] addresses B1. The experiment in a line: competition ELISA: mAb captured on RM-19 coated plate, FH-bt mixed with excess unlabelled full length FH; % of FH-bt binding without competitor. On the procedure: as §1
Assay [3] has as its target T3, recombinant human FH fragment CCP 18-20 (human, UniProt P08603 1046-1231).
T3 construct: domain: CCP 18-20; also called fragment of FH comprised of domain 18-20
T3 sequence (looked up): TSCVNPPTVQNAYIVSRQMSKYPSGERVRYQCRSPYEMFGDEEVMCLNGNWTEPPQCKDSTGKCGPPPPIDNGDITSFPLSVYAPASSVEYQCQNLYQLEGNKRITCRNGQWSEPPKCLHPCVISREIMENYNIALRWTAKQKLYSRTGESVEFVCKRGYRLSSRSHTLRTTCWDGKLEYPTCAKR
Briefly: competition ELISA: mAb captured on RM-19 coated plate, FH-bt mixed with 100-fold excess of unlabelled CCP 18-20. On the procedure: as §1
On the technique in general: ELISA stands for enzyme-linked immunosorbent assay.

Assay [4] addresses T4, recombinant human FH fragment CCP 15-19 (human, UniProt P08603 868-1165).
T4 construct: domain: CCP 15-19
T4 sequence (looked up): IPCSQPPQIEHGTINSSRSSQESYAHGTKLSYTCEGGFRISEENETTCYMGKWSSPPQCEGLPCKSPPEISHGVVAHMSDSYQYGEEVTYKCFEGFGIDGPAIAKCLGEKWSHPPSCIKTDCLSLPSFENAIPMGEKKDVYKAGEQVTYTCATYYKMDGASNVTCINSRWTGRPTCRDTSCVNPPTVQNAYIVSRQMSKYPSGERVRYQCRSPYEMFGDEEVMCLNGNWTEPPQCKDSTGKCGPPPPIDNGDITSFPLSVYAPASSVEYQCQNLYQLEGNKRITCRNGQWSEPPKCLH
The experiment in a line: competition ELISA: mAb captured on RM-19 coated plate, FH-bt mixed with 100-fold excess of unlabelled CCP 15-19. Here is the method: as §1

Assay [5] deals with T5, recombinant human FH fragment CCP 19-20 (human, UniProt P08603 1107-1231).
T5 construct: domain: CCP 19-20
T5 sequence (looked up): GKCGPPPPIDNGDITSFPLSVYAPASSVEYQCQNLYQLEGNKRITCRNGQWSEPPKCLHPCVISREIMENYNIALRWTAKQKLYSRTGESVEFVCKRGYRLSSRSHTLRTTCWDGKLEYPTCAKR
Briefly: competition ELISA: mAb captured on RM-19 coated plate, FH-bt mixed with unlabelled CCP 19-20. On the procedure:
as §1

Assay [6] deals with T3, recombinant human FH fragment CCP 18-20. Briefly: SPR (Biacore T200), mAb captured on ProtA or ProtG chip, FH CCP18-20 flowed over, 1:1 model. On the procedure: (§2) Surface plasmon resonance (SPR) experiments were performed using a BiaCore T200 (GE Healthcare) and CM5 sensor chips (GE Healthcare) in accordance with the manufacturer's instructions. In short, to determine its affinity, anti-FH.07, anti-FHR-1 3B4 or anti-FHR-1 8E4 were captured onto a ProtA or ProtG coupled chip and either full length FH or a fragment of FH comprising domain 18-20 was flown over the captured moAB at decreasing concentrations.

Assay [7] concerns the target B1. Briefly: SPR (Biacore T200), mAb captured on ProtA or ProtG chip, full length FH flowed over, 1:1 model. On the procedure:
as §2

The target of assay [8] is B1. Briefly: cell-based or functional assay.
Assay [9] concerns the target B1. Briefly: SPR, mAb captured on a ProtA or ProtG chip, full length FH flowed over, 1:1 binding model. On the procedure: as §2

The Kd is the concentration at which binding is half-saturated. B1 registered a Kd with C3b of 6000 nM.

As to B2, the binding result in [1] is reported as “binds”; in assay [2] it was “binds”; in assay [3], “binds”; in assay [4], “binds”; in [5] it was “no binding”.

In general, koff refers to the rate constant with which the complex falls apart. In general, kon refers to the second-order rate constant of association. As for B3, in assay [6], the Kd was found to be 0.00544 nM, the koff came to 1.27e-05 s⁻¹ and the kon worked out at 2.39e+06 M⁻¹ s⁻¹. In [7], this molecule returned a Kd of 5.8 nM, a koff of 9.1e-05 s⁻¹ and a kon of 15800 M⁻¹ s⁻¹. In [8], the “IC50 (nM), Hemolytic assay” value turned out to be 94 nM and the “IC50 (nM), LPS C3b dep. assay” value amounted to 38.4 nM. The molecule also yielded an equilibrium dissociation constant (Kd) in assay [9] of 5.77 nM. Moreover, in assay [5], the binding result is “no binding”.

Turning to B4, in assay [6], the Kd turned out to be 0.32 nM, the koff stood at 0.00027 s⁻¹ and the kon is 833000 M⁻¹ s⁻¹. Also, in assay [7], the Kd stood at 29.7 nM, the koff turned out to be 0.000181 s⁻¹ and the kon came out at 6090 M⁻¹ s⁻¹. Moreover, in assay [8], the “IC50 (nM), Hemolytic assay” value came out at 153 nM and the “IC50 (nM), LPS C3b dep. assay” value turned out to be 38.8 nM. Besides, the binding result in assay [5] is reported as “no binding”.

B5: the “IC50 (nM), LPS C3b dep. assay” value in assay [8] was 25 nM. The binding result in assay [5] is recorded as “no binding”.
